The values below come from patent publication US20120090043A1, “TARGETS FOR RETROVIRUS ASSOCIATED DISEASES” (priority 2009, published 2012).

B1: PIAS2: human host interactor protein, Gene ID 9063, expressed from transfected ORF vector (protein)
chain: MADFEELRNMVSSFRVSELQVLLGFAGRNKSGRKHDLLMRALHLLKSGCSPAVQIKIRELYRRRYPRTLEGLSDLSTIKSSVFSLDGGSSPVEPDLAVAGIHSLPSTSVTPHSPSSPVGSVLLQDTKPTFEMQQPSPPIPPVHPDVQLKNLPFYDVLDVLIKPTSLVQSSIQRFQEKFFIFALTPQQVREICISRDFLPGGRRDYTVQVQLRLCLAETSCPQEDNYPNSLCIKVNGKLFPLPGYAPPPKNGIEQKRPGRPLNITSLVRLSSAVPNQISISWASEIGKNYSMSVYLVRQLTSAMLLQRLKMKGIRNPDHSRALIKEKLTADPDSEIATTSLRVSLMCPLGKMRLTIPCRAVTCTHLQCFDAALYLQMNEKKPTWICPVCDKKAAYESLILDGLFMEILNDCSDVDEIKFQEDGSWCPMRPKKEAMKVSSQPCTKIESSSVLSKPCSVTVASEASKKKVDVIDLTIESSSDEEEDPPAKRKCIFMSETQSSPTKGVLMYQPSSVRVPSVTSVDPAAIPPSLTDYSVPFHHTPISSMSSDLPGLDFLSLIPVDPQYCPPMFLDSLTSPLTASSTSVTTTSSHESSTHVSSSSSRSETGVITSSGSNIPDIISLD
B2: SP100: human host interactor protein, Gene ID 6672, expressed from transfected ORF vector (protein)
chain: MAGGGGDLSTRRLNECISPVANEMNHLPAHSHDLQRMFTEDQGVDDRLLYDIVFKHFKRNKVEISNAIKKTFPFLEGLRDRDLITNKMFEDSQDSCRNLVPVQRVVYNVLSELEKTFNLPVLEALFSDVNMQEYPDLIHIYKGFENVIHDKLPLQESEEEEREERSGLQLSLEQGTGENSFRSLTWPPSGSPSHAGTTPPENGLSEHPCETEQINAKRKDTTSDKDDSLGSQQTNEQCAQKAEPTESCEQIAVQVNNGDAGREMPCPLPCDEESPEAELHNHGIQINSCSVRLVDIKKEKPFSNSKVECQAQARTHHNQASDIIVISSEDSEGSTDVDEPLEVFISAPRSEPVINNDNPLESNDEKEGQEATCSRPQIVPEPMDFRKLSTFRESFKKRVIGQDHDFSESSEEEAPAEASSGALRSKHGEKAPMTSRSTSTWRIPSRKRRFSSSDFSDLSNGEELQETCSSSLRRGSGSQPQEPENKKCSCVMCFPKGVPRSQEARTESSQASDMMDTMDVENNSTLEKHSGKRRKKRRHRSKVNGLQRGRKKDRPRKHLTLNNKVQKKRWQQRGRKANTRPLKRRRKRGPRIPKDENINFKQSELPVTCGEVKGTLYKERFKQGTSKKCIQSEDKKWFTPREFEIEGDRGASKNWKLSIRCGGYTLKVLMENKFLPEPPSTRKKRILESHNNTLVDPCEEHKKKNPDASVKFSEFLKKCSETWKTIFAKEKGKFEDMAKADKAHYEREMKTYIPPKGEKKKKFKDPNAPKRPPLAFFLFCSEYRPKIKGEHPGLSIDDVVKKLAGMWNNTAAADKQFYEKKAAKLKEKYKKDIAAYRAKGKPNSAKKRVVKAEKSKKKKEEEEDEEDEQEEENEEDDDK
B3: TEX11: human host interactor protein, Gene ID 56159, expressed from transfected ORF vector (protein)
chain: MISAHCNLRLLCSSDSSASASQVAGTTEVVENLVTNDNSPNIPEAIDRLFSDIANINRESMAEITDIQIEEMAVNLWNWALTIGGGWLVNEEQKIRLHYVACKLLSMCEASFASEQSIQRLIMMNMRIGKEWLDAGNFLIADECFQAAVASLEQLYVKLIQRSSPEADLTMEKITVESDHFRVLSYQAESAVAQGDFQRASMCVLQCKDMLMRLPQMTSSLHHLCYNFGVETQKNNKYEESSFWLSQSYDIGKMDKKSTGPEMLAKVLRLLATNYLDWDDTKYYDKALNAVNLANKEHLSSPGLFLKMKILLKGETSNEELLEAVMEILHLDMPLDFCLNIAKLLMDHERESVGFHFLTIIHERFKSSENIGKVLILHTDMLLQRKEELLAKEKIEEIFLAHQTGRQLTAESMNWLHNILWRQAASSFEVQNYTDALQWYYYSLRFYSTDEMDLDFTKLQRNMACCYLNLQQLDKAKEAVAEAERHDPRNVFTQFYIFKIAVIEGNSERALQAIITLENILTDEESEDNDLVAERGSPTMLLSLAAQFALENGQQIVAEKALEYLAQHSEDQEQVLTAVKCLLRFLLPKIAEMPESEDKKKEMDRLLTCLNRAFVKLSQPFGEEALSLESRANEAQWFRKTAWNLAVQCDKDPVMMREFFILSYKMSQFCPSDQVILIARKTCLLMAVAVDLEQGRKASTAFEQTMFLSRALEEIQTCNDIHNFLKQTGTFSNDSCEKLLLLYEFEVRAKLNDPLLESFLESVWELPHLETKTFETIAIIAMEKPAHYPLIALKALKKALLLYKKEEPIDISQYSKCMHNLVNLSVPDGASNVELCPLEEVWGYFEDALSHISRTKDYPEMEILWLMVKSWNTGVLMFSRSKYASAEKWCGLALRFLNHLTSFKESYETQMNMLYSQLVEALSNNKGPVFHEHGYWSKSD
B4: SF3A3: human host interactor protein, Gene ID 10946, expressed from transfected ORF vector (protein)
chain: METILEQQRRYHEEKERLMDVMAKEMLTKKSTLRDQINSDHRTRAMQDRYMEVSGNLRDLYDDKDGLRKEELNAISGPNEFAEFYNRLKQIKEFHRKHPNEICVPMSVEFEELLKARENPSEEAQNLVEFTDEEGYGRYLDLHDCYLKYINLKASEKLDYITYLSIFDQLFDIPKERKNAEYKRYLEMLLEYLQDYTDRVKPLQDQNELFGKIQAEFEKKWENGTFPGWPKETSSALTHAGAHLDLSAFSSWEELASLGLDRLKSALLALGLKCGGTLEERAQRLFSTKGKSLESLDTSLFAKNPKSKGTKRDTERNKDIAFLEAQIYEYVEILGEQRHLTHENVQRKQARTGEEREEEEEEQISESESEDEENEIIYNPKNLPLGWDGKPIPYWLYKLHGLNINYNCEICGNYTYRGPKAFQRHFAEWRHAHGMRCLGIPNTAHFANVTQIEDAVSLWAKLKLQKASERWQPDTEEEYEDSSGNVVNKKTYEDLKRQGLL
B5: SPAG5: human host interactor protein, Gene ID 10615, expressed from transfected ORF vector (protein)
chain: MWRVKKLSLSLSPSPQTGKPSMRTPLRELTLQPGALTNSGKRSPACSSLTPSLCKLGLQEGSNNSSPVDFVNNKRTDLSSEHFSHSSKWLETCQHESDEQPLDPIPQISSTPKTSEEAVDPLGNYMVKTIVLVPSPLGQQQDMIFEARLDTMAETNSISLNGPLRTDDLVREEVAPCMGDRFSEVAAVSEKPIFQESPSHLLEESPPNPCSEQLHCSKESLSSRTEAVREDLVPSESNAFLPSSVLWLSPSTALAADFRVNHVDPEEEIVEHGAMEEREMRFPTHPKESETEDQALVSSVEDILSTCLTPNLVEMESQEAPGPAVEDVGRILGSDTESWMSPLAWLEKGVNTSVMLENLRQSLSLPSMLRDAAIGTTPFSTCSVGTWFTPSAPQEKSTNTSQTGLVGTKHSTSETEQLLCGRPPDLTALSRHDLEDNLLSSLVILEVLSRQLRDWKSQLAVPHPETQDSSTQTDTSHSGITNKLQHLKESHEMGQALQQARNVMQSWVLISKELISLLHLSLLHLEEDKTTVSQESRRAETLVCCCFDLLKKLRAKLQSLKAEREEARHREEMALRGKDAAEIVLEAFCAHASQRISQLEQDLASMREFRGLLKDAQTQLVGLHAKQEELVQQTVSLTSTLQQDWRSMQLDYTTWTALLSRSRQLTEKLTVKSQQALQERDVAIEEKQEVSRVLEQVSAQLEECKGQTEQLELENSRLATDLRAQLQILANMDSQLKELQSQHTHCAQDLAMKDELLCQLTQSNEEQAAQWQKEEMALKHMQAELQQQQAVLAKEVRDLKETLEFADQENQVAHLELGQVECQLKTTLEVLRERSLQCENLKDTVENLTAKLASTIADNQEQDLEKTRQYSQKLGLLTEQLQSLTLFLQTKLKEKTEQETLLLSTACPPTQEHPLPNDRTFLGSILTAVADEEPESTPVPLLGSDKSAFTRVASMVSLQPAETPGMEESLAEMSIMTTELQSLCSLLQESKEEAIRTLQRKICELQARLQAQEEQHQEVQKAKEADIEKLNQALCLRYKNEKELQEVIQQQNEKILEQIDKSGELISLREEVTHLTRSLRRAETETKVLQEALAGQLDSNCQPMATNWIQEKVWLSQEVDKLRVMFLEMKNEKEKLMIKFQSHRNILEENLRRSDKELEKLDDIVQHIYKTLLSIPEVVRGCKELQGLLEFLS
B6: PDE9A: human host interactor protein, Gene ID 5152, expressed from transfected ORF vector (protein)
chain: MGSGSSSYRPKAIYLDIDGRIQKVIFSKYCNSSDIMDLFCIATGLPRNTTISLLTTDDAMVSIDPTMPANSERTPYKVRPVAIKQLSAGVEDKRTTSRGQSAERPLRDRRVVGLEQPRREGAFESGQVEPRPREPQGCYQEGQRIPPEREELIQSVLAQVAEQFSRAFKINELKAEVANHLAVLEKRVELEGLKVVEIEKCKSDIKKMREELAARSSRTNCPCKYSFLDNHKKLTPRRDVPTYPKYLLSPETIEALRKPTFDVWLWEPNEMLSCLEHMYHDLGLVRDFSINPVTLRRWLFCVHDNYRNNPFHNFRHCFCVAQMMYSMVWLCSLQEKFSQTDILILMTAAICHDLDHPGYNNTYQINARTELAVRYNDISPLENHHCAVAFQILAEPECNIFSNIPPDGFKQIRQGMITLILATDMARHAEIMDSFKEKMENFDYSNEEHMTLLKMILIKCCDISNEVRPMEVAEPWVDCLLEEYFMQSDREKSEGLPVAPFMDRDKVTKATAQIGFIKFVLIPMFETVTKLFPMVEEIMLQPLWESRDRYEELKRIDDAMKELQKKTDSLTSGATEKSRERSRDVKNSEGDCA

The test system of the test is HIV-1 LTR promoter transactivation by HIV-1 Tat. In words: Transactivation assay, HIV-1 LTR luciferase reporter with HIV-1 Tat. It is filed as cell-based. The settings on record: HEK293 cells co-transfected with pHIV1LTR-Luc, HIV-1 Tat and the human ORF; relative luciferase activity 24 h post-transfection; positive if >=2 or <=0.5 and p<0.05. An excerpt:
The plasmids pHIV1LTR-Luc or pHTLV1LTR-Luc containing a luciferase reporter gene under the control of the HIV-1 or HTLV-1 LTR promoters and plasmids expressing either HIV-1 Tat or HTLV-1 Tax and each human ORF found to interact with viral proteins were transfected into 10^4 HEK293 cells using the calcium phosphate method. Twenty-four hours post-transfection, cells were washed three times with PBS, lysed and luciferase activities determined from two independent transfection experiments in triplicate. We computed a paired t-test to assess the difference of the means between samples with and without the human interactor. For a trial to be considered positive, the relative luciferase activities has to be >=2 or <=0.5, and the p-value of the t-test<0.05.
Many HIV/HTLV-human interactions in our data set (130/212) involved the retroviral transactivator proteins HTLV-1 Tax (57/212), HTLV-2 Tax2 (49/212), HIV-1 Tat (10/212) and HIV-2 Tat (14/212). Human proteins interacting with viral transactivators likely influence Tat or Tax transactivation. Expression vectors encoding human ORFs and HIV-1 Tat or HTLV-1 Tax proteins were tested in a transactivation reporter assay against reporter plasmids harboring HIV-1 or HTLV-1 viral promoter sequences cloned upstream of the luciferase reporter gene. In the controls Tat or Tax respectively activated HIV or HTLV LTR-directed gene expression. Co-transfection of interacting human ORFs identified 71 proteins (54% of the 131 human targets in our data set) that regulated HIV (26.7% of targets), HTLV (37.4% of targets) or both (9.9% of targets) LTR promoter activation by Tat or Tax (see Tables 7 and 8; Table 13 below containing quantitative data on the regulation of transactivation). Wherever not expressly specified, constructs used herein were generally made by sub-cloning entry clones from the ORFeome V3.1 into suitable destination vectors.
A general note: A reporter such as luciferase makes a cellular process visible.
As to B1, the HIV_LTR transactiv. is 0.42 fold change.
In turn, B2 gave an HIV_LTR transactiv. of 3.69 fold change.
Turning to B3, the HIV_LTR transactiv. turned out to be 4.41 fold change.
Take B4: the HIV_LTR transactiv. is recorded as 0.49 fold change.
Consider B5, for which the HIV_LTR transactiv. is reported as 0.16 fold change.
B6 registered an HIV_LTR transactiv. of 0.28 fold change.
